According to the supplement of paper PMC12042874:
± gives the uncertainty stated by the source.

Experiment: amyloid nucleation score (Sup35N fusion, yeast selection) (log enrichment); library NNK3; higher = more nucleation; inactive = no reads after selection
Summary of the method: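 Output and input plasmid inserts were sequenced by Illumina after psi-negative yeast carrying Sup35N fused to peptides of 20 random codons had been induced 24 hours with 100 μM copper sulfate and grown 7 days at 30°C on medium lacking adenine and uracil. The nucleation score is the DiMSum log enrichment of output over input reads, centred on the mode score of non-aggregating sequences. Sequences with under 100 input reads were excluded.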

| Substance | amyloid nucleation score |
| --- | --- |
| WRFQQQAFRYNWPWVILLLV | inactive |
| APYNFKDYCISGIWSGYIMF | inactive |
| INSTRMAFVWR | inactive |
| CREVINDSFPNATWLHSGLV | inactive |
| SYMGHV | 0.506 ± 0.43 |
| GCAGRSWTGYRVHAASV | inactive |
| YNLRYLVYYLDLLSPVNQMG | inactive |
| PENDRNMLLVSVIVPRYIAT | inactive |
| CMFVVFQLVTGHFTLLQYHG | 1.82 ± 0.077 |
| MCMYVKMYLNGSLFVYMTSK | inactive |
| LVFHQDMCGNYYFRH | 0.953 ± 0.13 |
| CLCKLEWHNTYMGYKR | 2.63 ± 0.08 |
| HCHCIVEYQFFSVHLIRTYE | inactive |
| SYFDIFGTTDQVSVKSRMCT | inactive |
| SSEPMHLEASIPVFAKE | inactive |
| AYLCGANINL | inactive |
| ATGYGL | inactive |
| MCDKV | inactive |
| AEVHDDHPMGSDAHIYGTGG | inactive |
| DFFNWWSSVWFYLLMGRKVE | inactive |
| LRNTFKCVTIRALGSKGGRA | inactive |
| PHCVWDFLVRYGMDENRVKY | inactive |
| LWYHWHNA | inactive |
| SSSPVMYCMFLRSRSGRDYK | inactive |

| Substance | amyloid nucleation score |
| --- | --- |
| SALLKWYRYTSAWSGNDVAA | inactive |
| SITSFDFLINRVSMPSYNCG | inactive |
| THHWKFGSNPSFR | inactive |
| GHLFVNTRYFGNFLDSSQVR | inactive |
| TFVNLFIVPGKGQSVTGGCE | 1.45 ± 0.13 |
| WLFYLT | inactive |
| TMGVSLHHIKGPFWSVIYCI | 0.481 ± 0.32 |
| LKVSAFAYDKFLQRYMTVVT | inactive |
| FSLSCPLSDPNVACTY | inactive |
| RAGATTFGVMVYKYDKFRQD | inactive |
| RLRLYFRLTKNFHSMNHW | inactive |
| FKAVQN | inactive |
| WFFILD | inactive |
| PTAFWGFGF | inactive |
| HRSIRLYSETDWFRGLGSAG | inactive |
| TKGTKDRPPYTVVRLQYGNS | inactive |
| DRYFLVDAKMFTGRTYLILG | -0.416 ± 0.88 |
| TAMYVMSFCW | inactive |
| LLMGFWIWFINGVCNVRTDS | inactive |
| MSVQHER | inactive |
| RFLLLRSCMSIDWRVGLEIF | inactive |
| YRKLVVSPLGILPKYRTPCC | inactive |
| SAPKWGGTYDRVCTISNFTV | inactive |
| EDHFSLHACVSSGTLSKVVY | inactive |

| Substance | amyloid nucleation score |
| --- | --- |
| CQYRVTSYHSSWFFSEAMHP | -0.268 ± 0.7 |
| CIGWRIM | inactive |
| IFCVGVSLRQ | 0.347 ± 0.3 |
| LVVGISRPMSTGSMASWQWR | inactive |
| SYGLFR | inactive |
| NMNSWAMQWTICTHSTFVLS | inactive |
| WDNWSTIRWTVYALSRKSAR | inactive |
| VTQSQRKASFMVCSYSTITR | inactive |
| HKVQESAY | inactive |
| QHNLRDGMFLNGTYRNDAVR | inactive |
| NYFYRPYSEDSVITQMIVVV | inactive |
| SHSVYIFFVSTFVGSLWSLP | inactive |
| GAVFSEWTQVRSCDCDGIDK | inactive |
| LHLHFAIKKLGLRLSTKWWV | inactive |
| RGWYINTVGYRTRAGHNLCG | inactive |
| LFRLKNRFEDKVGNSIRLWE | inactive |
| RLNGRDHL | inactive |
| LMSYV | inactive |
| SYFFVIQGQLGCITGVDFIW | inactive |
| ICRLGLLFIMTLRYYNVFVR | inactive |
| DDLYMFMLIVRMLISQIKRV | inactive |
| YCVLLRCNFFRSL | inactive |
| LIYRLGNVHVPKYW | inactive |
| ENTCYRVGALIAAFTSFKLW | inactive |

| Substance | amyloid nucleation score |
| --- | --- |
| ENLLNMFWMFPLWYLGFNLG | inactive |
| DQECRA | inactive |
| GSDVMSGG | inactive |
| RIKAYVGLFTVSWGSWGRRR | 1.44 ± 0.14 |
| RQGYVADNSTGESDIGDGLG | inactive |
| YTPGLPSDFN | inactive |
| FNVTWKRLRIGRVGMKQKLS | 0.336 ± 0.77 |
| VRDVDKMC | inactive |
| IDKFVRFCIFSWCLMNGDVG | inactive |
| QILYFVDTEVSYMEASWRDS | inactive |
| SGLACRYCTMVGCNLNYNYW | 2.58 ± 0.055 |
| SVYGACSRFPTNVVYNRSEY | inactive |
| VGLRNLGFVMFSRWLTPLLI | inactive |
| PLNMSRCTLALTLFVISFGW | inactive |
| CTFDSSSNYADSAKLIG | inactive |
| RLQMGVLDLFYFD | inactive |
| PSVWFFSTETFMVRCPADC | 0.549 ± 0.33 |
| AWYFAP | inactive |
| SRRSCYVIAYELV | inactive |
| LPLLTYSSVSVRPLTSW | inactive |
| WYALYAKYASTPGFCACLRG | inactive |
| LIKSSRLCLNRWEWAAGSGM | inactive |
| RVMCTYTRYLWFKFISLMMV | inactive |
| TCSDDCFLMKWYEDIRSVVT | inactive |

| Substance | amyloid nucleation score |
| --- | --- |
| MCTNYYITCRSKSCVICRRI | 2.31 ± 0.059 |
| KFVLETFCHSKPRLVLVNHD | inactive |
| CCKSVKFKSLPARN | 0.725 ± 0.24 |
| MPIGTSSYFFSQKICHYTSR | 1.77 ± 0.09 |
| NLPVF | inactive |
| FGEMRFCFCAG | inactive |
| DVGTCSLLNGHKYFFRFNVV | inactive |
| RVFHP | inactive |
| GNSLWKSPCYL | inactive |
| YWQWSNV | inactive |
| YRINDKSFNVISGIVFSVVR | inactive |
| RMYWAV | 1.02 ± 0.19 |
| RMGYFSCQVRYSRFLTIPSR | inactive |
| RRYGTDRLLMRYSIENFCVL | inactive |
| CAWVDRYYKKVIGANRGSLS | inactive |
| APDQLF | inactive |
| VMTAVRAD | inactive |
| RIWRPLTFMSLDLMIMWCRH | inactive |
| FNSPSWTYDRLHFPAEQQAL | inactive |
| DLPKVHGKFFYSLPMVVNTN | -0.162 ± 0.98 |
| MRMFCDIYLIVIDTEFMLHF | inactive |
| SRVYAKGRKNTSQFCSGGYS | inactive |
